Measurements from patent US20170183403A1 (UNIVERSIT T Z RICH, published 2017).

How the values were obtained:
[1] = biological target: T1, Reference peptide no. 38; experiment: peptide microarray (RepliTope), 15-mers
T1 construct: hIL-2 15-mer, first library, parental Cys replaced by Ser, on microarray; also called peptide 38
T1 peptide: ATIVEFLNRWITFSQ
Experimental: (§1) Additional incubations are with unrelated antibodies from the same isotype (mouse control IgG2a/lambda and mouse control IgG2a/kappa), and secondary antibodies (anti-mouse IgG (Thermo 84545, label DL650) or anti-mouse IgG (JIR 115-175-072, Label Cy5)) to assess unspecific binding due to the detection antibody. The experiments are performed essentially as described in Maksimov P, et al. 2012, PLoS One 7:e34212. doi:10.1371/journal. pone. 0034212.
(§2) The determination of peptide-antibody binding was performed by RepliTope-analysis where the peptide microarray (triplicate) was incubated with the primary antibody followed by a fluorescently labelled secondary antibody directed against the Fc-part of the primary one. All steps were performed on a TECAN microarray processing station enabling highly reliable and reproducible washing and incubation steps. After performing the incubation steps and subsequent to the final washing steps (to remove the unbound secondary antibodies) the microarrays were dried using a nitrogen stream and scanned in a high resolution microarray scanning system with appropriate wavelength settings. Control incubations were performed with an unrelated antibody having the same isotype to exclude false positive signals.
(§3) The resulting images were analyzed und quantified using spot-recognition software GenePix (Molecular Devices). For each spot, the mean signal intensity was extracted (between 0 and 65535 arbitrary units). For further data evaluation, the MMC2 values were determined. The MMC2 equals the mean value of all three instances on the microarray. Except the coefficient of variation (CV)—standard-deviation divided by the mean value—is larger 0.5, in this case the mean of the two closest values (MC2) is assigned to MMC2.

[2] = biological target: T2, Reference peptide no. 46; experiment: peptide microarray (RepliTope), 15-mers
T2 construct: second library: peptide 14 with F(62) to Ala; also called peptide 46
T2 peptide: LTAKFYMPKKATELK
Experimental: as §1, §2, §3

[3] = biological target: T3, Reference peptide no. 31; experiment: peptide microarray (RepliTope), 15-mers
T3 construct: hIL-2 15-mer, first library, parental Cys replaced by Ser, on microarray; also called peptide 31
T3 peptide: VIVLELKGSETTFMS
Experimental: as §1, §2, §3

[4] = biological target: T4, Reference peptide no. 29; experiment: peptide microarray (RepliTope), 15-mers
T4 construct: hIL-2 15-mer, first library, on microarray; also called peptide 29
T4 peptide: LISNINVIVLELKGS
Experimental: as §1, §2, §3

[5] = biological target: T5, Reference peptide no. 14; experiment: peptide microarray (RepliTope), 15-mers
T5 construct: hIL-2 15-mer, first library, on microarray; also called peptide 14
T5 peptide: LTFKFYMPKKATELK
Experimental: as §1, §2, §3

[6] = biological target: T6, Reference peptide no. 44; experiment: peptide microarray (RepliTope), 15-mers
T6 construct: second library: peptide 12 with F(62) to Ala; also called peptide 44
T6 peptide: PKLTRMLTAKFYMPK
Experimental: as §1, §2, §3

[7] = biological target: T7, Reference peptide no. 1; experiment: peptide microarray (RepliTope), 15-mers
T7 construct: hIL-2 15-mer, first library, on microarray; also called peptide 1
T7 peptide: APTSSSTKKTQLQLE
Experimental: as §1, §2, §3

[8] = biological target: T8, Reference peptide no. 2; experiment: peptide microarray (RepliTope), 15-mers
T8 construct: hIL-2 15-mer, first library, on microarray; also called peptide 2
T8 peptide: SSSTKKTQLQLEHLL
Experimental: as §1, §2, §3

[9] = biological target: T9, Reference peptide no. 49; experiment: peptide microarray (RepliTope), 15-mers
T9 construct: second library: peptide 13 with Y(65) to Ala; also called peptide 49
T9 peptide: TRMLTFKFAMPKKAT
Experimental: as §1, §2, §3

[10] = biological target: T10, Reference peptide no. 27; experiment: peptide microarray (RepliTope), 15-mers
T10 construct: hIL-2 15-mer, first library, on microarray; also called peptide 27
T10 peptide: HLRPRDLISNINVIV
Experimental: as §1, §2, §3

[11] = biological target: T11, Reference peptide no. 9; experiment: peptide microarray (RepliTope), 15-mers
T11 construct: hIL-2 15-mer, first library, on microarray; also called peptide 9
T11 peptide: LNGINNYKNPKLTRM
Experimental: as §1, §2, §3

[12] = biological target: T12, Reference peptide no. 42; experiment: peptide microarray (RepliTope), 15-mers
T12 construct: second library: peptide 10 with F(62) to Ala; also called peptide 42
T12 peptide: INNYKNPKLTRMLTA
Experimental: as §1, §2, §3

[13] = biological target: T13, Reference peptide no. 50; experiment: peptide microarray (RepliTope), 15-mers
T13 construct: second library: peptide 14 with Y(65) to Ala; also called peptide 50
T13 peptide: LTFKFAMPKKATELK
Experimental: as §1, §2, §3

[14] = biological target: T14, Reference peptide no. 26; experiment: peptide microarray (RepliTope), 15-mers
T14 construct: hIL-2 15-mer, first library, on microarray; also called peptide 26
T14 peptide: KNFHLRPRDLISNIN
Experimental: as §1, §2, §3

[15] = biological target: T15, Reference peptide no. 16; experiment: peptide microarray (RepliTope), 15-mers
T15 construct: hIL-2 15-mer, first library, parental Cys replaced by Ser, on microarray; also called peptide 16
T15 peptide: MPKKATELKHLQSLE
Experimental: as §1, §2, §3

[16] = biological target: T16, Reference peptide no. 19; experiment: peptide microarray (RepliTope), 15-mers
T16 construct: hIL-2 15-mer, first library, parental Cys replaced by Ser, on microarray; also called peptide 19
T16 peptide: HLQSLEEELKPLEEV
Experimental: as §1, §2, §3

[17] = biological target: T17, Reference peptide no. 13; experiment: peptide microarray (RepliTope)
T17 construct: hIL-2 15-mer, first library, on microarray; also called peptide 13
T17 peptide: TRMLTFKFYMPKKAT
Experimental: as §1, §2, §3

[18] = biological target: T18, Reference peptide no. 10; experiment: peptide microarray (RepliTope)
T18 construct: hIL-2 15-mer, first library, on microarray; also called peptide 10
T18 peptide: INNYKNPKLTRMLTF
Experimental: as §1, §2, §3

[19] = biological target: T19, Reference peptide no. 11; experiment: peptide microarray (RepliTope)
T19 construct: hIL-2 15-mer, first library, on microarray; also called peptide 11
T19 peptide: YKNPKLTRMLTFKFY
Experimental: as §1, §2, §3

[20] = biological target: T20, Reference peptide no. 12; experiment: peptide microarray (RepliTope)
T20 construct: hIL-2 15-mer, first library, on microarray; also called peptide 12
T20 peptide: PKLTRMLTFKFYMPK
Experimental: as §1, §2, §3

[21] = biological target: T21, Reference peptide no. 25; experiment: peptide microarray (RepliTope)
T21 construct: hIL-2 15-mer, first library, on microarray; also called peptide 25
T21 peptide: AQSKNFHLRPRDLIS
Experimental: as §1, §2, §3

[22] = biological target: T22, Reference peptide no. 24; experiment: peptide microarray (RepliTope)
T22 construct: hIL-2 15-mer, first library, on microarray; also called peptide 24
T22 peptide: LNLAQSKNFHLRPRD
Experimental: as §1, §2, §3

[23] = biological target: T23, Reference peptide no. 23; experiment: peptide microarray (RepliTope)
T23 construct: hIL-2 15-mer, first library, on microarray; also called peptide 23
T23 peptide: EEVLNLAQSKNFHLR
Experimental: as §1, §2, §3

[24] = biological target: T14, Reference peptide no. 26; experiment: peptide microarray (RepliTope)
Experimental: as §1, §2, §3

[25] = biological target: T24, Reference peptide no. 22; experiment: peptide microarray (RepliTope)
T24 construct: hIL-2 15-mer, first library, on microarray; also called peptide 22
T24 peptide: KPLEEVLNLAQSKNF
Experimental: as §1, §2, §3

B1: NARA1 (antibody, mouse IgG2a, kappa, V domains shown)
VH: QVQLQQSGAELVRPGTSVKVSCKASGYAFTNYLIEWVKQRPGQGLEWIGVINPGSGGTNYNEKFKGKATLTADKSSSTAYMQLSSLTSDDSAVYFCARWRGDGYYAYFDVWGAGTTVTVSS
VL: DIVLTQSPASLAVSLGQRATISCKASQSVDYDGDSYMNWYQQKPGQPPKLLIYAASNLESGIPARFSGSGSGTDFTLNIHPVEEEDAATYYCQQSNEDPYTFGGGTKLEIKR
notes: Mouse monoclonal from hybridoma; Isotype controls used were mouse IgG2a; also called anti-IL2 (NARA1) antibody; monoclonal antibody NARA1
Question: Does B1 bind [1]?
Answer: no binding

Question: Does B1 bind [2]?
Answer: no binding

Question: Does B1 bind [3]?
Answer: no binding

Question: Does B1 bind [4]?
Answer: no binding

Question: Does B1 bind [5]?
Answer: no binding

Question: Does B1 bind [6]?
Answer: no binding

Question: Does B1 bind [7]?
Answer: no binding

Question: Does B1 bind [8]?
Answer: no binding

Question: Does B1 bind [9]?
Answer: no binding

Question: Does B1 bind [10]?
Answer: no binding

Question: Does B1 bind [11]?
Answer: no binding

Question: Does B1 bind [12]?
Answer: no binding

Question: Does B1 bind [13]?
Answer: no binding

Question: Does B1 bind [14]?
Answer: no binding

Question: Does B1 bind [15]?
Answer: no binding

Question: Does B1 bind [16]?
Answer: no binding

Question: What about the “signal intensity after subtraction of control signal” value (from here on “signal intensity after subtraction”) [17] of the same binder?
Answer: 224 AU

Question: What about the “signal intensity after subtraction” value [18] of the same binder?
Answer: 20900 AU

Question: And the “signal intensity after subtraction” value [19]?
Answer: 1190 AU

Question: And the “signal intensity after subtraction” value [20]?
Answer: 1130 AU

Question: And the “signal intensity after subtraction” value [21]?
Answer: 0 AU

Question: What about the “signal intensity after subtraction” value [22] of the same binder?
Answer: 282 AU

Question: What about the “signal intensity after subtraction” value [23] of the same binder?
Answer: 32 AU

Question: What about the “signal intensity after subtraction” value [24] of the same binder?
Answer: 0 AU

Question: What about the “signal intensity after subtraction” value [25] of the same binder?
Answer: 0 AU
